Assay results from article PMC2671166, “Site Directed Mutagenesis of Amino Acid Residues at the Active Site of Mouse Aldehyde Oxidase AOX1” (PLoS ONE, 2009).

Molecular target: the molecule itself
Assay: SEC; purified mAOX1; single peak with an approximate molecular mass of 300 kDa; data not shown

B1: Mouse aldehyde oxidase AOX1 (recombinant, wild-type) (enzyme, UniProt O54754 1-1333, looked up)
chain: MDPIQLLFYVNGQKVVEKNVDPEMMLLPYLRKNLRLTGTKYGCGGGGCGACTVMISRYNPSTKAIRHHPVNACLTPICSLHGTAVTTVEGLGNTRTRLHPIQERIAKCHGTQCGFCTPGMVMSMYALLRNHPEPTLDQLTDALGGNLCRCTGYRPIIDACKTFCKASACCQSKENGVCCLDQEINGLAESQEEDKTSPELFSEEEFLPLDPTQELIFPPELMRIAEKQPPKTRVFYGERVTWISPVTLKELVEAKFKYPQAPIVMGYTSVGPEVKFKGVFHPIIISPDRIEELGVISQARDGLTLGAGLSLDQVKDILADIVQKLPEEKTQTYRALLKHLRTLAGSQIRNMASLGGHIVSRHLDSDLNPLLAVGNCTLNLLSKDGERRIPLSEEFLRKCPEADLKPQEVLVSVNIPWSRKWEFVSAFRQAQRQQNALAIVNSGMRVLFREGGGVIEELSILYGGVGSTIISAKNSCQRLIGRPWNEGMLDTRCRLVLDEVTLAASAPGGKVEFKRTLIISFLFKFYLEVSQGLKREDPGHSPSLAGNHESALDDLHSKHPWRTLTHQNVDPAQLPQDPIGRPIMHLSGIKHATGEAIYCDDMPAVDRELFLTFVTSSRAHAKIVSIDLSEALSLPGVVDIITADHLQEANTFGTETFLATDEVHCVGHLVCAVIADSETRAKQAAKQVKVVYQDLAPLILTIEEAIQHKSFFKSERKLECGNVDEAFKIVDQILEGEIHIGGQEHFYMETQSMLVVPKGEDGEIDIYVSTQFPKYIQDIVAATLKLSANKVMCHVRRVGGAFGGKVGKTSILAAITAFAASKHGRAVRCILERGEDMLITGGRHPYLGKYKAGFMNEGRILALDVEHYCNGGCSLDESLWVIEMGLLKLDNAYKFPNLRCRGWACRTNLPSNTALRGFGFPQAGLVTEACITEVAIKCGLSPEQVRTINMYKHVDTTHYKQEFSAKALSECWRECMAKCSYFERKAAIGKFNAENSWKKRGMAVIPLKFPVGIGSVAMGQAAALVHIYLDGSALVSHGGIEMGQGVHTKMIQVVSRELRMPMSSVHLRGTSTETVPNTNASGGSVVADLNGLAVKDACQTLLKRLEPIISKNPQGTWKDWAQTAFDQSISLSAVGYFRGYESNIDWEKGEGHPFEYFVFGAACSEVEINCLTGDHKNIRTNIVMDVGHSINPALDIGQVEGAFIQGMGLYTIEELSYSPQGTLYSRGPNQYKIPAICDIPTEMHISFLPPSEHSNTLYSSKGLGESGVFLGCSVFFAIHDAVKAARQERGISGPWKLNSPLTPEKIRMACEDKFTKMIPRDEPGSYVPCNIPV
notes: mouse aldehyde oxidase AOX1, cDNA cloned from mouse CD1 liver into the NdeI-SalI sites of pTrcHis (plasmid pSL205); band of 150 kDa on SDS-PAGE; Holds Moco, two [2Fe-2S] clusters and FAD as cofactors; also called mAOX1; mAOX1-WT; source: E. coli TP1000, coexpressed with mMCSF, purified (Ni-NTA, Superose 12, benzamidine sepharose)
stoichiometry N: 2
